We go through two molecules from patent publication US20210403565A1 (BIOATLA, published 2021).

Assay [1] addresses T1, human CTLA4 expressed on the cell surface of CHO cells (human, UniProt P16410 36-223).
T1 construct: whole, on cells; also called CHO-huCTLA4; huCTLA4
T1 sequence (looked up): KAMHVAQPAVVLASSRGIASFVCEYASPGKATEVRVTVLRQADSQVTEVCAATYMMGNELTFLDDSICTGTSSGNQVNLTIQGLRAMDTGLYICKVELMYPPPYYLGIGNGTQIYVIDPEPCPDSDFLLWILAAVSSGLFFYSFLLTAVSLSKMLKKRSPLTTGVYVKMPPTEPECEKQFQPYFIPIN
Nature of the assay: FACS, cells expressing human CTLA4, assay pH 7.4, MFI; lot 6972 in His buffer, T0; unit from the axis Log[ng/mL]. The procedure: (§1) The amount of bound antibodies was quantified using anti-human IgG antibody conjugated to fluorophores. The MFI in each reaction was proportional to the amount of antibodies bound. The EC₅₀ value (in ng/mL) for binding to human CTLA4 on cells was determined by MFI of the singlets population against antibody concentration with a Prism variable slope of four-parameter dose-response curve, which was calculated using the nonlinear fit (variable slope, four parameters) model built into GraphPad Prism software (version 7.03).

Assay [2] has as its target T1, human CTLA4 expressed on the cell …. Nature of the assay: FACS, cells expressing human CTLA4, assay pH 6.0, MFI; lot 6972 in Glu buffer, T0; unit from the axis Log[ng/mL]. The procedure: as §1
Assay [3] addresses T2, recombinant human CTLA4 extracellular domain (human, UniProt P16410 36-161).
T2 construct: extracellular domain; also called huCTLA-4
T2 sequence (looked up): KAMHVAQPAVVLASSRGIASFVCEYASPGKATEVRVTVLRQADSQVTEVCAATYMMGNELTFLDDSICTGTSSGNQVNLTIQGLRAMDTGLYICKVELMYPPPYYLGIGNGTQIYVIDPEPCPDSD
Nature of the assay: ELISA, wells coated with human CTLA4, assay pH 6.0; lot 6972 in Glu buffer, T2W; unit from the axis Log[ng/mL]. The procedure: (§2) Both ELISA and FACS analysis were used to measure the binding activity. […] The amount of bound antibodies was quantified using anti-human IgG antibody conjugated to HRP. The absorbance at 450 nm in each measurement was proportional to the amount of antibodies bound. […] EC50 value (in ng/mL) for binding to human CTLA4 was determined by absorbance at 450 nm against antibody concentration with Prism variable slope of four-parameter dose-response curve, which was calculated using the nonlinear fit (variable slope, four parameters) model built into GraphPad Prism software (version 7.03). The buffers tested included His buffer (His), Tris buffer (Tris), Glutamine buffer (Glu) and no buffer.

Assay [4] addresses T2, recombinant human CTLA4 extracellular …. The experiment in a line: ELISA, immobilised huCTLA-4, table head pH 7.0 (text: pH 7.4), Jun. 27, 2017.
Assay [5] concerns the target T3, cynomolgus CTLA4 expressed on the cell surface of CHO cells (cynomolgus, UniProt G7PL88 36-223).
T3 construct: whole, on cells; also called CHO-cynoCTLA4
T3 sequence: T1 sequence (looked up) with S14N, I18T, L106M
The experiment in a line: FACS, CHO cells expressing cynomolgus CTLA4 (CHO-cynoCTLA-4), pH 7.4, MFI; curve still rising at log 5 (about 600000 against about 1900000 for Ipilimumab), no plateau; no unit in the table, unit from the axis Log Antibodies [ng/ml]. As to the method: The amount of antibodies bound on the cells was quantified using anti-human IgG antibody conjugated to fluorophores. EC₅₀ values at pH 6.0 and 7.4 for binding to cells were calculated using the nonlinear fit (variable slope, four parameters) model built into GraphPad Prism software (version 7.03). The expression levels of human CTLA4 or cynomolgus CTLA4 on the surface of the CHO cells were determined using a BD QuantiBRITE™ PE kit.
At least two independent duplicate FACS experiments were performed for each antibody using each of the cell lines. The binding activities at different concentrations of the antibodies are plotted in these figures.

The target in assay [6] is T4, human CTLA4 on CTLA4 Jurkat effector cells (Promega CTLA4 Blockade Assay) (human, UniProt P16410 36-223).
T4 sequence (looked up): T1 sequence (looked up)
Nature of the assay: cell-based or functional assay.

Assay [7] addresses T1, human CTLA4 expressed on the cell …. The experiment in a line: FACS, cells expressing human CTLA4, assay pH 6.0, MFI; lot 6972 in His buffer, T2W; unit from the axis Log[ng/mL]. The procedure:
as §1

The target in assay [8] is T2, recombinant human CTLA4 extracellular …. The experiment in a line: ELISA, wells coated with human CTLA4, assay pH 7.4; lot 6972 in Tris buffer, T0; unit from the axis Log[ng/mL]. As to the method: as §2
The target of assay [9] is T1, human CTLA4 expressed on the cell …. Nature of the assay: FACS, cells expressing human CTLA4, assay pH 7.4, MFI; lot 6978 in Tris buffer, T0; unit from the axis Log[ng/mL]. As to the method:
as §1

Assay [10] concerns the target T2, recombinant human CTLA4 extracellular …. The experiment in a line: ELISA, wells coated with human CTLA4, assay pH 7.4; lot 6978 in His buffer, T2W; curve still rising at log 3 (OD450 below 0.2), no plateau; unit from the axis Log[ng/mL]. As to the method: as §2
Assay [11] concerns the target T1, human CTLA4 expressed on the cell …. The experiment in a line: FACS, cells expressing human CTLA4, assay pH 7.4, MFI; lot 6978 in Glu buffer, T2W; unit from the axis Log[ng/mL]. As to the method:
as §1

Assay [12] has the same target. Nature of the assay: FACS, cells expressing human CTLA4, assay pH 6.0, MFI; lot 6978 in Tris buffer, T2W; unit from the axis Log[ng/mL]. The procedure: as §1

Residue numbers refer to the chain shown, from its start.

B1: BA-087-05-19 (antibody, V domains shown)
VH: EVQLVESGGGLVQPGGSLRLSCAASGFTFSHYTMHWVRQAPGKGLEWVSFISYDGNNKYYADSVKGRFTISRDNSKNTLYLQMNSLRAEDTAVYYCARTGWLGPFDYWGQGTLVTVSS
VL: AIQLTQSPSSLSASVGDRVTITCRASQYVGSSYLAWYLQKPGQSPQLLIYGAFSRATGIPARFSGSGSGTEFTLTISSLQSEDFAVYYCQQDGSSPWTFGQGTKVEIK
notes: Detected with anti-human IgG and a molecular weight of 146 kDa was used in SPR, so it was tested as a whole IgG; also called BA-087-05-019; BA-087-05-19 (# 6972)
With B1, the EC50 came out at 0.433 µg/mL in assay [1]; 0.291 µg/mL in [2]; 0.00266 µg/mL in assay [3]; 0.0358 µg/mL in assay [4]; 8.28 µg/mL in [5]; 0.295 µg/mL in assay [7]. In addition, the concentration giving a half-maximal response (EC50) in [8] amounted to 0.0424 µg/mL. Moreover, in assay [6], the “EC50 of bioluminescence (RLUs), Promega CTLA4 Blockade Assay, pH 6.0; unit from the axis Log (µg/mL)” value was found to be 1.2 µg/mL.

B2: BA-087-08-32 (antibody, V domains shown)
VH: EVQLVQSGAEVKKPGATVKISCKVSGFTFSHYTMHWIRQSPSRGLEWLGFISYDGNYKYYADSVKGRFTISRDNAKNSLYLQMNSLRAEDTAVYYCARTGWLGPFDYWGQGTLVTVSS
VL: EIVMTQSPATLSVSPGERATLSCRASQSVGSSYLAWYQQKPGKAPKLLIYGAFSRATGVPSRFSGSGSGTDFTLTISSLQPEDFATYYCQQDGSSPWTFGQGTKVEIK
notes: Detected with anti-human IgG and a molecular weight of 146 kDa was used in SPR, so it was tested as a whole IgG; also called BA-087-08-032; BA-087-08-32 (# 6978)
Regarding B2, the EC50 was 1.26 µg/mL in assay [9], 1.07 µg/mL in assay [10], 1.41 µg/mL in assay [11] and ~0.152 µg/mL in assay [12].
